Measurements from patent US7727950B2, “Methods and reagents for assaying protein kinase activity” (The University of Dundee, priority 2002, dated 2010).

Columns and labels:
[1] = system: CC(C)C[C@H](NC(=O)[C@H](CCCNC(=N)N)NC(=O)[C@H](CCCNC(=N)N)NC(=O)[C@@H](N)CCCNC(=N)N)C(=O)N[C@@H](CO)C(=O)N[C@@H](Cc1ccccc1)C(=O)N[C@@H](C)C(=O)N[C@@H](CCC(=O)O)C(=O)N1CCC[C@H]1C(=O)NCC(=O)O; assay: purified protein, by the assay type; conditions: other: PKA; Standard Substrate = LRRASLG; 30.0 °C
[2] = system: T1, CC(C)C[C@H](NC(=O)[C@H](CCCCN)NC(=O)[C@@H](N)CCCCN)C(=O)N[C@@H](CC(N)=O)C(=O)N[C@@H](CCCNC(=N)N)C(=O)N[C@H](C(=O)N[C@@H](CC(C)C)C(=O)N[C@@H](CO)C(=O)N[C@@H](Cc1ccccc1)C(=O)N[C@@H](C)C(=O)N[C@@H](CCC(=O)O)C(=O)N1CCC[C@H]1C(=O)NCC(=O)O)[C@@H](C)O; assay: Kinetic parameters for peptide phosphorylation, radioactive filter-binding assay; type: biochemical, human; conditions: other: PKBα; Standard Substrate = GRPRTSSFAEG; 30.0 °C
T1 construct: made in house; host or cells: Sf21 insect cells
Excerpt: Apart from the AMP-activated protein kinase (AMPK, a gift from Drs S. Hawley and D. G. Hardie), cGMP-dependent protein kinase (PKG, a generous gift from Drs Susan Lohmann and Ulrich Walter, University of Wurzburg, Germany) and the catalytic subunit of cyclic AMP-dependent protein kinase (PKA, a gift from Dr C. Smythe), which were isolated from rat liver, bovine lung and bovine heart, respectively, all other protein kinases were expressed as either GST-fusion or His-tagged proteins (by a person, a person, Dr A. Paterson or a person, in this Division). The expressed proteins all corresponded to the human sequences apart from the rat Rho-dependent protein kinase (ROCK-II) and rat mitogen-activated protein kinase (MAPK) activated kinase-1a (MAPKAP-K1a, also called RSK). […]
All protein kinase assays were linear with respect to time. […] All papers were subsequently washed a further three times in phosphoric acid, once in acetone, then dried and counted for radioactivity. […] The plates were then washed six times (five min per wash) in PBS, 0.1% Tween 20 and binding of the phospho-specific antibody detected by incubating the plates with peroxidase-conjugated anti-sheep antibodies (Pierce). […] Signals were quantitated on LAS-1000IR software (FujiFilm). […]

[3] = system: CC(C)C[C@H](NC(=O)[C@@H](NC(=O)[C@H](CCCNC(=N)N)NC(=O)[C@H](C)NC(=O)[C@@H](N)CCCNC(=N)N)[C@@H](C)O)C(=O)N[C@@H](CO)C(=O)N[C@@H](Cc1ccccc1)C(=O)N[C@@H](C)C(=O)N[C@@H](CCC(=O)O)C(=O)N1CCC[C@H]1C(=O)NCC(=O)O; assay: purified protein, by the assay type; conditions: other: CaMKII; Standard Substrate = MHRQETVDCLK; 30.0 °C
Experimental: All protein kinase assays were linear with respect to time. […] The assays with the three generic peptides introduced in this example were carried out in the same buffers as follow. Unlabelled or biotinylated substrate peptides were assayed for 10 min at 30° C. in 50 μl incubations, in the presence of 0.1 mM [y^32P]ATP or unlabelled ATP. Radioactive assays were terminated by spotting 40 μl of each incubation on to phosphocellulose paper followed by immersion in 75 mM phosphoric acid. All papers were subsequently washed a further three times in phosphoric acid, once in acetone, then dried and counted for radioactivity. Non-radioactive assays were terminated by the addition of EDTA to a final concentration of 20 mM, then diluted with an equal volume of phosphate-buffered saline (PBS), containing 0.1% Tween 20 and the biotinylated peptides captured by incubation for 60 min on pre-washed, 96 well Streptavidin coated plates (Equilon A/S, Vedbaek, Denmark). […] The plates were then washed six times (five min per wash) in PBS, 0.1% Tween 20 and binding of the phospho-specific antibody detected by incubating the plates with peroxidase-conjugated anti-sheep antibodies (Pierce). […] Signals were quantitated on LAS-1000IR software (FujiFilm).

## PKA (Bos taurus)
[1]
  Km: 30 µM

## PKBα (Homo sapiens)
[2]
  Km: 2 µM

## CaMKII (Homo sapiens)
[3]
  Km: 300 µM
